According to patent US20220073581A1 (UCB, published 2022):

What was measured:
[1] = biological target: T1, Human serum albumin (HSA), Jackson ImmunoResearch catalog #009-000-051 (human, UniProt P02768 25-609); assay: SPR (Biacore), fusion captured from supernatant on anti-human F(ab)2, 1000 nM HSA injected
[2] = biological target: T2, IL-15-Rα-hFc (R&D Systems) (UniProt Q13261 31-205); assay: SPR (Biacore), fusion captured from supernatant on anti-human F(ab)2, 100 nM IL-15-Rα injected
T2 construct: Bought reagent; not shown: human Fc (hFc)

[3] = biological target: T3, IL-2-Rβ (IL-2 receptor β chain, R&D Systems) (UniProt P14784 27-239); assay: SPR (Biacore), fusion captured from supernatant on anti-human F(ab)2, 100 nM IL-2-Rβ injected
T3 construct: also called IL-2-sRβ
T3 sequence (looked up): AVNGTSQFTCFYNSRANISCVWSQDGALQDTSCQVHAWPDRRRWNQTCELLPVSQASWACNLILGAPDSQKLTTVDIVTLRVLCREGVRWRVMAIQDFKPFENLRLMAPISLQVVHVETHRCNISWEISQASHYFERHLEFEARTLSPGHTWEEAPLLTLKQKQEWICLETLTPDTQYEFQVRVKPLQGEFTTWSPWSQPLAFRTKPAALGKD

IL-6 (R&D Systems) [4] = biological target: T4, IL-6 (R&D Systems) (UniProt P05231 30-212, limits assumed); assay: SPR (Biacore), fusion captured on anti-human F(ab)2, 100 nM IL-6 injected alone or with 1000 nM HSA
[5] = biological target: T3, IL-2-Rβ (IL-2 receptor β chain, R&D …); assay: SPR (Biacore), fusion captured on anti-human F(ab)2, 100 nM IL-2-sRβ injected, with or without premixed 200 nM IL-15
[6] = biological target: T3, IL-2-Rβ (IL-2 receptor β chain, R&D …); assay: as above; remark: listed apart in the source
[7] = biological target: T3, IL-2-Rβ (IL-2 receptor β chain, R&D …); assay: as above; remark: listed apart in the source
[8] = biological target: T1, Human serum albumin (HSA), Jackson …; assay: SPR (Biacore), fusion captured on anti-human F(ab)2, 1000 nM HSA injected alone or with 100 nM G-CSF-Rα
[9] = biological target: T5, GM-CSF receptor, cognate for the human GM-CSF constructs (GM-CSF-Ra, R&D Systems) (UniProt P15509 23-320); assay: SPR (Biacore), fusion captured on anti-human F(ab)2, 100 nM GM-CSF receptor injected
T5 construct: also called cognate GM-CSF receptor
T5 sequence (looked up): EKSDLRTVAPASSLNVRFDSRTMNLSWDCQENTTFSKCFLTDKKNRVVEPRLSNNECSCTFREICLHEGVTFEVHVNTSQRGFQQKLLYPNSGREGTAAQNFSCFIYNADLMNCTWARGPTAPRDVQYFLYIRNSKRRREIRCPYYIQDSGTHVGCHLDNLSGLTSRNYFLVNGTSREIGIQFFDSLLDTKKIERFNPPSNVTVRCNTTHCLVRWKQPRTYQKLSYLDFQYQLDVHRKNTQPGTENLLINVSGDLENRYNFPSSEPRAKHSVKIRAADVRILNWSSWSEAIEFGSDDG

[10] = biological target: T3, IL-2-Rβ (IL-2 receptor β chain, R&D …); assay: SPR (Biacore), Fab captured on anti-human F(ab)2, IL-2-Rβ injected
[11] = biological target: T6, GM-CSF receptor, cognate for the murine GM-CSF constructs (UniProt Q00941 30-327); assay: SPR (Biacore), Fab captured on anti-human F(ab)2, GM-CSF receptor injected
T6 construct: also called GM-CSF-Ra; cognate GM-CSF receptor
T6 sequence (looked up): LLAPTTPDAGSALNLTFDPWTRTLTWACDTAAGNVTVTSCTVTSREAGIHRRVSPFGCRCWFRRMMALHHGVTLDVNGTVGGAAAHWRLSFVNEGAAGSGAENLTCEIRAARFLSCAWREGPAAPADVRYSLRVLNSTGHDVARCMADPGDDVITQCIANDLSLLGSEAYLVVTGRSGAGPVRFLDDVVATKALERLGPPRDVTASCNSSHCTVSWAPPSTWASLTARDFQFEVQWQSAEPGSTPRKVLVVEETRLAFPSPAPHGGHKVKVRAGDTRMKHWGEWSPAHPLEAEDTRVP

[12] = biological target: T7, EPO-R (EPO receptor, R&D Systems) (UniProt P19235 25-250); assay: SPR (Biacore), Fab captured on anti-human F(ab)2, EPO-R injected
T7 sequence (looked up): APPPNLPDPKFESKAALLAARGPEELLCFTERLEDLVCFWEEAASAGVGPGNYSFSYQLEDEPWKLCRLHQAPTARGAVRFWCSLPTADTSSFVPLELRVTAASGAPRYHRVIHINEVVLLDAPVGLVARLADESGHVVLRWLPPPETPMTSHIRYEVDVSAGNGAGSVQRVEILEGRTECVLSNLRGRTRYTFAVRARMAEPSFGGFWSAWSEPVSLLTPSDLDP

[13] = biological target: T5, GM-CSF receptor, cognate for the human …; assay: SPR (Biacore), Fab captured on anti-human F(ab)2, GM-CSF receptor injected
IL-6 (R&D Systems) [14] = biological target: T4, IL-6 (R&D Systems); assay: SPR (Biacore), fusion captured on anti-human F(ab)2, IL-6 alone injected

B1: CA645/IL-15Fwk3 (CA645 Fab with human IL-15 inserted into framework 3 of the VH domain, original linkers) (Fab)
heavy: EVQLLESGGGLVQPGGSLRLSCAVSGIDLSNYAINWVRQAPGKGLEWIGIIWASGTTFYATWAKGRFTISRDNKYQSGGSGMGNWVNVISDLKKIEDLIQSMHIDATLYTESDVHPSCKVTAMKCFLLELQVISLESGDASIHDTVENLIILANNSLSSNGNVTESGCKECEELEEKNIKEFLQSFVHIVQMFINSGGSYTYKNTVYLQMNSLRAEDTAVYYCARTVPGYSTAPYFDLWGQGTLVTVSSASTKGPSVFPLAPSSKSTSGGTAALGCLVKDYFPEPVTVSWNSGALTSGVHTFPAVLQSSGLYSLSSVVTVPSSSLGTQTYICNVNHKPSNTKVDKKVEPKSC
light: DIQMTQSPSSVSASVGDRVTITCQSSPSVWSNFLSWYQQKPGKAPKLLIYEASKLTSGVPSRFSGSGSGTDFTLTISSLQPEDFATYYCGGGYSSISDTTFGGGTKVEIKRTVAAPSVFIFPPSDEQLKSGTASVVCLLNNFYPREAKVQWKVDNALQSGNSQESVTEQDSKDSTYSLSSTLTLSKADYEKHKVYACEVTHQGLSSPVTKSFNRGEC
notes: Tested as HEK293 supernatant diluted 1 in 5, captured on anti-human F(ab)2; also called CA645/IL-15 antibody fusion protein
- binding result [1]: binds
- binding result [2]: binds
- binding result [3]: binds

B2: CA645/VHH15Fwk3 (CA645 Fab with anti-IL-6 camelid VHH15 inserted into framework 3 of the VH domain) (bispecific antibody)
heavy: EVQLLESGGGLVQPGGSLRLSCAVSGIDLSNYAINWVRQAPGKGLEWIGIIWASGTTFYATWAKGRFTISRDNSGGGGSGGGGSQVQLVESGGGSVQAGGSLRLSCVAASGYTGCTYDMRWYRQAPGKEREFVSGIDSDGRATYADSVKGRFTISQSNAKIAVYLQMDSLKLEDTAMYYCNLQCLRYPGEYYWGQGTQVTVSSGGGGSGGGGSKNTVYLQMNSLRAEDTAVYYCARTVPGYSTAPYFDLWGQGTLVTVSSASTKGPSVFPLAPSSKSTSGGTAALGCLVKDYFPEPVTVSWNSGALTSGVHTFPAVLQSSGLYSLSSVVTVPSSSLGTQTYICNVNHKPSNTKVDKKVEPKSC
light: B1 light
notes: also called CA645/VHH15 antibody fusion protein
- binding result (IL-6 (R&D Systems) [4]): binds

B3: CA497/IL-15Fwk3 (anti-IL-17A CA497 Fab with human IL-15 inserted into framework 3 of the VH domain) (Fab)
heavy: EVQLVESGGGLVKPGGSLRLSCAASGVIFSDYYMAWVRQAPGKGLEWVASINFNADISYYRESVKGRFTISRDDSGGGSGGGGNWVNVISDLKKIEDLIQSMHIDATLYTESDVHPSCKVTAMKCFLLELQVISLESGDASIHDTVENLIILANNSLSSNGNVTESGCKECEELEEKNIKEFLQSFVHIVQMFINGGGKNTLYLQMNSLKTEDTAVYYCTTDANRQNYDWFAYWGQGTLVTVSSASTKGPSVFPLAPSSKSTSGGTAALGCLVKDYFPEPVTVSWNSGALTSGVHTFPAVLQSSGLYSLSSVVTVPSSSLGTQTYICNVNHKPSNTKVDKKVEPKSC
light: AIQLTQSPSSLSASVGDRVTITCKASESVSSSMYSYMHWYQQKPGKAPKLLIYRASNLESGVPSRFSGSGSGTDFTLTISSLQPEDFATYYCQQSWTAPRTFGQGTKVEIKRTVAAPSVFIFPPSDEQLKSGTASVVCLLNNFYPREAKVQWKVDNALQSGNSQESVTEQDSKDSTYSLSSTLTLSKADYEKHKVYACEVTHQGLSSPVTKSFNRGEC
notes: also called CA497/IL-15 antibody fusion protein
- binding result [5]: binds

B4: CA240/IL-15Fwk3 (anti-IL-6 CA240 Fab with human IL-15 inserted into framework 3 of the VH domain) (Fab)
heavy: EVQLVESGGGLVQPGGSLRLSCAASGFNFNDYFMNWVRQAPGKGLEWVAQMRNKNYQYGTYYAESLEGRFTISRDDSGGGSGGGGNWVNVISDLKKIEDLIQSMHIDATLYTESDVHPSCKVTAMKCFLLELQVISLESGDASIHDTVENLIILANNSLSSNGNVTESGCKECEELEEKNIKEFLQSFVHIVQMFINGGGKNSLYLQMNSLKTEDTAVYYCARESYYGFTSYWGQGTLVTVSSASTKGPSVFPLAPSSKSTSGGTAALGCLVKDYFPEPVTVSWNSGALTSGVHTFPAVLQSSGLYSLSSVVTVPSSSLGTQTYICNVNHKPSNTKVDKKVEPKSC
light: DIQMTQSPSSLSASVGDRVTITCQASQDIGISLSWYQQKPGKAPKLLIYNANNLADGVPSRFSGSGSGTDFTLTISSLQPEDFATYYCLQHNSAPYTFGQGTKLEIKRTVAAPSVFIFPPSDEQLKSGTASVVCLLNNFYPREAKVQWKVDNALQSGNSQESVTEQDSKDSTYSLSSTLTLSKADYEKHKVYACEVTHQGLSSPVTKSFNRGEC
notes: also called CA240/IL-15 antibody fusion protein
- binding result [6]: binds

B5: CA645/IL-2Fwk3 (CA645 Fab with human IL-2 inserted into framework 3 of the VH domain) (Fab)
heavy: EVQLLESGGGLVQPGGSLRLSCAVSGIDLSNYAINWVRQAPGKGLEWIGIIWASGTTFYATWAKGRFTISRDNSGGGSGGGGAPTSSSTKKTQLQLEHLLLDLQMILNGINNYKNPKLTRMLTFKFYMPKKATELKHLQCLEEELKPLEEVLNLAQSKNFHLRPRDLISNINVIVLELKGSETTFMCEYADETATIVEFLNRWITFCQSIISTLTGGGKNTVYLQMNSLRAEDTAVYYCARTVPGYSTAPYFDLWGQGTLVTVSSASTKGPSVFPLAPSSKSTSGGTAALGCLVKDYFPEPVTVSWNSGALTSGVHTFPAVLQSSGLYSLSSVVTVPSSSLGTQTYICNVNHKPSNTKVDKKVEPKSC
light: B1 light
notes: also called CA645/IL-2 antibody fusion protein
- binding result [7]: binds

B6: CA645/G-CSFFwk3 (CA645 Fab with human G-CSF inserted into framework 3 of the VH domain) (Fab)
heavy: EVQLLESGGGLVQPGGSLRLSCAVSGIDLSNYAINWVRQAPGKGLEWIGIIWASGTTFYATWAKGRFTISRDNSGGGGSATPLGPASSLPQSFLLKCLEQVRKIQGDGAALQEKLVSECATYKLCHPEELVLLGHSLGIPWAPLSSCPSQALQLAGCLSQLHSGLFLYQGLLQALEGISPELGPTLDTLQLDVADFATTIWQQMEELGMAPALQPTQGAMPAFASAFQRRAGGVLVASHLQSFLEVSYRVLRHLAQPSGGGGKNTVYLQMNSLRAEDTAVYYCARTVPGYSTAPYFDLWGQGTLVTVSSASTKGPSVFPLAPSSKSTSGGTAALGCLVKDYFPEPVTVSWNSGALTSGVHTFPAVLQSSGLYSLSSVVTVPSSSLGTQTYICNVNHKPSNTKVDKKVEPKSC
light: B1 light
notes: also called CA645/G-CSF antibody fusion protein
- binding result [8]: binds

B7: CA645/GM-CSFFwk3 (human) (CA645 Fab with human GM-CSF inserted into framework 3 of the VH domain) (Fab)
heavy: not shown
light: B1 light
notes: also called CA645/hGM-CSF antibody fusion protein
- binding result [9]: binds

B8: CA645/GM-CSFCH1 (human) (CA645 Fab with human GM-CSF at the C-terminus of CH1, for comparison) (Fab, V domains shown)
VH: EVQLLESGGGLVQPGGSLRLSCAVSGIDLSNYAINWVRQAPGKGLEWIGIIWASGTTFYATWAKGRFTISRDNSKNTVYLQMNSLRAEDTAVYYCARTVPGYSTAPYFDLWGQGTLVTVSS
VL: DIQMTQSPSSVSASVGDRVTITCQSSPSVWSNFLSWYQQKPGKAPKLLIYEASKLTSGVPSRFSGSGSGTDFTLTISSLQPEDFATYYCGGGYSSISDTTFGGGTKVEIKR
notes: also called constant domain (CH1) fusion of the GM-CSF peptide (human)
- binding result [9]: binds

B9: CA645 Fab (unmodified, wild type, anti-human serum albumin) (Fab, V domains shown)
VH: B8 VH
VL: B8 VL
notes: Control without insert polypeptide; also called unmodified CA645 Fab; wild type CA645 Fab
- binding result [10]: no binding (tested: 100 nM)
- binding result [11]: no binding (tested: 100 nM)
- binding result [12]: no binding (tested: 50 nM)
- binding result [13]: no binding (tested: 100 nM)

B10: CA645/VHH6Fwk3 (CA645 Fab with camelid VHH6 inserted into framework 3 of the VH domain) (bispecific antibody)
heavy: EVQLLESGGGLVQPGGSLRLSCAVSGIDLSNYAINWVRQAPGKGLEWIGIIWASGTTFYATWAKGRFTISRDNSGGGGSGGGGSDVQFVESGGGSVHAGGSLRLNCATSGYIYSTYCMGWFRQAPGKEREGVAHIYTNSGRTYYADSVKGRFTISQDNAKNTVYLQMNSLKPEDTAIYYCAARPSIRCASFSATEYKDWGQGTQVTVSSGGGGSGGGGSKNTVYLQMNSLRAEDTAVYYCARTVPGYSTAPYFDLWGQGTLVTVSSASTKGPSVFPLAPSSKSTSGGTAALGCLVKDYFPEPVTVSWNSGALTSGVHTFPAVLQSSGLYSLSSVVTVPSSSLGTQTYICNVNHKPSNTKVDKKVEPKSC
light: B1 light
notes: also called CA645/VHH6 antibody fusion protein
- binding result (IL-6 (R&D Systems) [14]): no binding (tested: 100 nM)
